Laboratory results reported in paper PMC4451617.

Columns and labels:
[1] = molecular target: ErbB4 receptor (rat (endogenous in rat brain membranes and cultured rat hippocampal neurons))
[2] = molecular target: ErbB4 receptor (rat (endogenous in rat brain membranes and cultured rat hippocampal neurons)); assay: co-IP; ErbB4 immunoprecipitated with mAB10 from lysates (PBS + 1% TX-100) of cultured rat hippocampal neurons (>DIV 28), unstimulated or 10 nM NRG2 for 10 min; western blot, densitometric ratio of glutamate receptor subunit over ErbB4

Chain of ErbB4 receptor (rat (endogenous in rat brain membranes and cultured rat hippocampal neurons)) (Q62956 26-1308): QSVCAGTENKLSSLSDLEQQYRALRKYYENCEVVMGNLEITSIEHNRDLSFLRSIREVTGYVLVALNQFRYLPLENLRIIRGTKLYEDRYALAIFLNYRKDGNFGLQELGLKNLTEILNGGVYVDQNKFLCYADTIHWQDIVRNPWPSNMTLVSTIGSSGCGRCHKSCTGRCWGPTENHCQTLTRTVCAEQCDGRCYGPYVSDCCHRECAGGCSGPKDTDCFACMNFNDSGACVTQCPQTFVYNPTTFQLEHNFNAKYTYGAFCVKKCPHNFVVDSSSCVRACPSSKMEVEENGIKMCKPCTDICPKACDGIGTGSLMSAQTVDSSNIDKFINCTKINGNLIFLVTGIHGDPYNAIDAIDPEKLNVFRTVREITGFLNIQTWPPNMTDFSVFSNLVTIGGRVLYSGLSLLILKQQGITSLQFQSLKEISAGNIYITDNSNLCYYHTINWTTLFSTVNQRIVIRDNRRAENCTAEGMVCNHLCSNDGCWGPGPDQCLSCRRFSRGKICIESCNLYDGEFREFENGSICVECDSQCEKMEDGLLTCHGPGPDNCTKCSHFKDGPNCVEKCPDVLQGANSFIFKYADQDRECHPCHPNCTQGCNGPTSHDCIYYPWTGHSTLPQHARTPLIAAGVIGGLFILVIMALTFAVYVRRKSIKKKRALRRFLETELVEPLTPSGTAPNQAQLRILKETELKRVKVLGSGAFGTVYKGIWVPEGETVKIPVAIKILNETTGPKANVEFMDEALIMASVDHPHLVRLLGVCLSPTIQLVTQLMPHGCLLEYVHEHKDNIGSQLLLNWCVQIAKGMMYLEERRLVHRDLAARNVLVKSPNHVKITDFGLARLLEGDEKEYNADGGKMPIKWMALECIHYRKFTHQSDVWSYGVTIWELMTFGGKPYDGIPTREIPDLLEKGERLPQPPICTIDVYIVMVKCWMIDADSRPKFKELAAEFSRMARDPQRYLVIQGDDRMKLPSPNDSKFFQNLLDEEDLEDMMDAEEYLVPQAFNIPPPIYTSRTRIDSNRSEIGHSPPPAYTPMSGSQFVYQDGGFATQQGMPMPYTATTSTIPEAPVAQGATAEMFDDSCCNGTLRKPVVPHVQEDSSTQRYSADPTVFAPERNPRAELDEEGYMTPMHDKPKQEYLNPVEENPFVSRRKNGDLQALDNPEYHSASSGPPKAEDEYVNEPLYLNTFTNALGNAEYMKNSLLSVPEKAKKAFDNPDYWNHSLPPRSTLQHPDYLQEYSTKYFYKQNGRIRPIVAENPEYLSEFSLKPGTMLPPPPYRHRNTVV

Substance | whole-cell NMDA-evoked currents (100 μM NMDA, +40 mV) in ErbB4+ cultured hippocampal interneurons after 10 min of 10 nM NRG2, relative to baseline; ErbB4-negative neurons not affected (% of baseline) [1] | co-immunoprecipitation after NRG2, % of unstimulated controls (% of controls) [2]
recombinant NRG2-ECD (neuregulin 2 extracellular domain) (ligand) | 43 | 
GluN2B subunit of the NMDA receptor (from UniProt Q00960 27-1482) |  | 198
